Results: PMC3777401

Assays:
FLAG-CTCF-6xHis [1] = biological target: T1, FLAG-CTCF-6xHis (UniProt Q61164 1-736); experiment: EMSA
T1 sequence: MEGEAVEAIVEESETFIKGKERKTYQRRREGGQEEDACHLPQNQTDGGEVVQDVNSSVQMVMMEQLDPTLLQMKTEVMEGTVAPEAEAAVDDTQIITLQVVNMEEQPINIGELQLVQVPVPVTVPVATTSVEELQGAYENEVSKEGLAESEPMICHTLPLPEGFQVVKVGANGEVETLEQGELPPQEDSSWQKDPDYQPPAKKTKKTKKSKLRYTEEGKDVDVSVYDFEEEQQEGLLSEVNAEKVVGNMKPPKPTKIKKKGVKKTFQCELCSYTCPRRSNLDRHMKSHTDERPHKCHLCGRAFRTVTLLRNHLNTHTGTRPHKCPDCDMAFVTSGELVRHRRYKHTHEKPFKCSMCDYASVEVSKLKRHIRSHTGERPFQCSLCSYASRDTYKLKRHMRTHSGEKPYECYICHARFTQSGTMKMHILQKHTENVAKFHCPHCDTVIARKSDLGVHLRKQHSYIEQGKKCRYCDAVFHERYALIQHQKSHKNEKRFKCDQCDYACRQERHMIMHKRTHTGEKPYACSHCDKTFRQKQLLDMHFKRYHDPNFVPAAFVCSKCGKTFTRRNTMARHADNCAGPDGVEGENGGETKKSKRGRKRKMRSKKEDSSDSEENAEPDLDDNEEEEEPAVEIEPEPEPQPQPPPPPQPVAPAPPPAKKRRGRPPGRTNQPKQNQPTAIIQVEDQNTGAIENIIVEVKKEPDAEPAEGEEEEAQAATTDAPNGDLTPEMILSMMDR

FLAG-CTCF-6xHis [2] = biological target: T1, FLAG-CTCF-6xHis; experiment: competition

B1: RS14C (dsDNA)
DNA 1: CTATGCATTAGGTTTGGGTGTTATACCCGTGTAGGCCAGCAGAGGGTGTCGGATCCCAAGGAAACCAAGTTACAGACGCC
DNA 2: GGCGTCTGTAACTTGGTTTCCTTGGGATCCGACACCCTCTGCTGGCCTACACGGGTATAACACCCAAACCTAATGCATAG
binding result (FLAG-CTCF-6xHis [1]): binds

B2: P1 (dsDNA)
DNA 1: TTGTGGCCACTCCTCTTCTGGTCTCTCCGCCTTCAGCGCCGCGGATCAGTTAAAGGCGTGCAACGGCTTGCTCCAGCCAT
DNA 2: ATGGCTGGAGCAAGCCGTTGCACGCCTTTAACTGATCCGCGGCGCTGAAGGCGGAGAGACCAGAAGAGGAGTGGCCACAA
binding result (FLAG-CTCF-6xHis [1]): no binding

B3: P2 (dsDNA)
DNA 1: GAATGTGTCTAAGATGGCGGAAGTCATGTGACCTGCCCTCTAGTGGTTTCTTTCAGTGATTTTTTTTTTGGCGGGCTTTA
DNA 2: TAAAGCCCGCCAAAAAAAAAATCACTGAAAGAAACCACTAGAGGGCAGGTCACATGACTTCCGCCATCTTAGACACATTC
binding result (FLAG-CTCF-6xHis [2]): binds

B4: Xist_5' (dsDNA)
DNA 1: TTTGGCTTCAGATGCCTTGGAAAGATTCATGCTGCCACCTGCTGGTTTATTCAGTCTGTGTGCATCATTTATTTACTTGT
DNA 2: ACAAGTAAATAAATGATGCACACAGACTGAATAAACCAGCAGGTGGCAGCATGAATCTTTCCAAGGCATCTGAAGCCAAA
binding result (FLAG-CTCF-6xHis [1]): binds
